Results reported in patent US20230120167A1 (AFFILOGIC, published 2023).
One block for each binder: values may come before it.

Legend:
mouse PD-L1 = biological target: T1, mouse PD-L1 (mouse, UniProt Q9EP73 19-238, limits assumed); assay: Surface Plasmon Resonance
T1 construct: also called murine PDL1

human PD-L1 = biological target: T2, human PD-L1 (human, UniProt Q9NZQ7 19-238, limits assumed); assay: Surface Plasmon Resonance
T2 construct: also called PD-1 ligand 1; CD274

HSP110 = biological target: T3, HSP110 (human, UniProt Q92598 1-858, limits assumed)
T3 construct: also called HSPH1; Hsp105
T3 sequence (Q92598 whole entry): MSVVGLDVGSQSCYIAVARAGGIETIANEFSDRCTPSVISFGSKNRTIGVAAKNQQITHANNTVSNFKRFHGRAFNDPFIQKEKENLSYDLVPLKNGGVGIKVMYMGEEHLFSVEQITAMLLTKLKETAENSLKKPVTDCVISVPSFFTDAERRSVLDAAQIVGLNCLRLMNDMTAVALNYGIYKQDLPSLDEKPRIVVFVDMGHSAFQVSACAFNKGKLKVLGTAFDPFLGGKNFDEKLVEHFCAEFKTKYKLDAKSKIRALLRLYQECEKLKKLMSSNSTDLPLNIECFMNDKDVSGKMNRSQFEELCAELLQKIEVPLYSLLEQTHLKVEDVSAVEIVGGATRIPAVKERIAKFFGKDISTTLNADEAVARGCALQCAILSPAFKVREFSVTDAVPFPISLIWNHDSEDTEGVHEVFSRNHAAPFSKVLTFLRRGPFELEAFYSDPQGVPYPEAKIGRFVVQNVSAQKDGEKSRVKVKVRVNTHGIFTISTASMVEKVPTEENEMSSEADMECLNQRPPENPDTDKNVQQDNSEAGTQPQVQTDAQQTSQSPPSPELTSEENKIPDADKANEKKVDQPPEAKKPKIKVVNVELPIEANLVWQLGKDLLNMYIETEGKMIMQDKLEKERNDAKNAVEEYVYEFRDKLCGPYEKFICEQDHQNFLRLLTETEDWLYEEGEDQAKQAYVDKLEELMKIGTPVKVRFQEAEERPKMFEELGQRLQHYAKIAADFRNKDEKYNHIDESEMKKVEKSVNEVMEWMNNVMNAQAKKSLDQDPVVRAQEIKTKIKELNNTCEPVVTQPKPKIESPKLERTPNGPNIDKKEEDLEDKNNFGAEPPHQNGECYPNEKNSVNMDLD

T2 sequence (Q9NZQ7 19-238 limits assumed): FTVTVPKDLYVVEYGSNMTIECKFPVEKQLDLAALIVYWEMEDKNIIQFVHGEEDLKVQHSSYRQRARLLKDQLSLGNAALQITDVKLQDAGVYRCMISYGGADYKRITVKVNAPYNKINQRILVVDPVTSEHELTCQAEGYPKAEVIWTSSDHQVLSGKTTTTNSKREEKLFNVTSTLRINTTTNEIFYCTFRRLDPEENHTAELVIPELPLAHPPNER
T1 sequence (Q9EP73 19-238 limits assumed): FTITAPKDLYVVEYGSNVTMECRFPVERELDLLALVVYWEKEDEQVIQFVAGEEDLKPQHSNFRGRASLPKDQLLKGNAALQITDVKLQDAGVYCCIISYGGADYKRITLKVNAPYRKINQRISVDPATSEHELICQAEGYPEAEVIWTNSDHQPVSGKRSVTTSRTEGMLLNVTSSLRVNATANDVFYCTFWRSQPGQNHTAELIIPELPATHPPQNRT

Kd (mouse PD-L1): ~3.2 nM
Kd (human PD-L1): ~15 nM
B1: B11 (Sac7d variant binding to PD-L1, SEQ ID NO: 21) (designed binder)
chain: MVKVKFVIGGEEKEVDTSKIKTVRRIGKYVLFKYDDNGKTGMGLVSEKDAPKELLDMLARAEREKK
notes: also called NF2; NF-B11

Kd (HSP110): < 1 nM
B2: A-C2 (Sac7d variant binding to HSP110, SEQ ID NO: 27) (designed binder)
chain: MVKVKFMWRGEEKEVDTSKIWDVWRSGKTVYFHYDDNGKMGQGKVHEKDAPKELLDMLARAEREKK
notes: also called NF1; anti-HSP110 variant
